Experimental data taken from publication PMC10950269.

Biological target: Recombinant truncated NA protein from the A/Perth/16/2009 H3N2 strain of influenza virus (influenza A virus A/Perth/16/2009 (H3N2))
Assay: SEC

“Recombinant truncated NA protein from the A/Perth/16/2009 H3N2 strain of influenza virus (enzyme)” showed a stoichiometry N of 4.
